In data set [1] the test system is HCT116-luc2 xenograft tumor. Briefly: HCT116-luc2 mouse xenograft tumor model. It is filed as in vivo. The note with it: single dose 20 mg/kg. Here is the method: Athymic nude mice (five mice per group) were subcutaneously inoculated with 5×10^6 HCT116, HT29, and SW620 cells followed by injection of 20 mg/kg Zt/g4-DM1 through tail vein. FIG. 4A: Tumor growth from HT29-luc2 or HCT116-luc2 cells was determined by measuring average photon intensity (left panel). SW620-derived tumor growth was monitored by measuring tumor volume (FIG. 4B) (right panel). FIG. 4C: Tumor images with photon emission or caliper measurement at day 16 are presented. The scale from minimal to maximal is set at 300 to 35,000 photons per second. The percentages of inhibition were calculated from the average photon emission (for HT29 and HCT116 cells) or tumor volume (for SW620 cells). […] The percentages of inhibition were calculated by a formula: (average tumor weight from Zt/g4-DM1 treated group/average tumor weight from control mice)×100%;
Mouse xenograft CRC model and anti-RON ADC treatment: All mice studies were approved by the institutional animal care committee. […] Bioluminescence from individual tumors was measured every four days using Caliper IVIS image system (PerkinElmer). Tumor volumes from SW620-derived tumors were measured according to a formula: V=pi/6×1.58×(length×width)^3/2 (18,33). […]
The inventors first determined the efficacy of a single dose of Zt/g4-DM1 at 20 mg/kg body weight on tumors derived from HCT116, HT29, and SW620 cells. […]

In data set [2] the test system is three CRC cell lines (HCT116, HT29, SW620). It is filed as cell-based, human. Set-up: cell death: dose or concentration left out as unconfirmed. The protocol: Cell viability was determined by the MTS assay. […] Morphological changes were observed under the Olympus BK-41 inverted microscope and photographed. […] FIG. 3D: Cell death percentages were determined by the trypan blue exclusion method.
(§1) Cell viability and death assays: Cell viability 72 h after Zt/g4-DM1 treatment was determined by the MTT assay (22). Viable or dead cells were determined by the trypan blue exclusion assay. A total of 900 cells were counted from three individual wells to reach the percentages of dead cells.

Another data set concerns three CRC cell lines. Description: Cell viability, three CRC cell lines together. The note with it: 72 h after treatment. The protocol:
as §1

For data set [3], the system named is PDAC cell-mediated tumor growth. Briefly: Mouse xenograft PDAC model. It is filed as in vivo. The note with it: mouse PDAC xenograft models. The protocol: Mouse xenograft PDAC model and anti-RON ADC treatment: Female athymic nude mice were injected with 5×106 L3.6PL, BxPC-3, or FG cells into the subcutaneous space of the right flank. Treatment began when all tumors have reached an average tumor volume of 100 to 200 mm3 The single-dose effect was studied by injection of 20 mg/kg Zt/g4-DM1. Tumor volumes were determined every four days using a previously described formula: V=pi/6×1.58×(length×width)3/2.

In data set [4] the target is T1, RON on HCT116, HT29, and SW620 cells (Homo sapiens, UniProt Q04912).
T1 construct: We selected CRC cell lines LoVo, DLD1, HT29, HCT116, and SW620 expressing variable levels of RON as the cellular model; host or cells: HCT116, HT29, SW620
Description: Flow cytometric binding to CRC cell lines. The note with it: all three CRC cell lines, flow cytometry.
Description: FIG. 2B: Binding of Zt/g4-DM1 to human CRC cell lines: HCT116, HT29, and SW620 cells (1×10^5 cells) were incubated with 5 μg Zt/g4-DM1 or Zt/c1-DM1. Free Zt/g4 and Zt/c1 was used as the control. Fluorescence intensity from individual samples was determined by flow cytometric analysis.
The binding capacity of Zt/g4-DM1 to RON was determined by flow cytometric analysis.

“Also recorded” adds a separate entry of the source.

B1: Zt/g4-DM1: anti-RON mouse mAb Zt/g4 conjugated to maytansinoid DM1 via non-reducible thioether linkage (SMCC), DAR about 4:1 (conjugate)
VH: EVQLQQSGAELVKPGASVKLSCTTSGFNIIDTYIHWVNQKPDQGLEWIGRIDPADGNRKSDPKFQVKATITVDTSSNTAYLQLSSLTSGDTAVYYCARGYGNLNAMDSWGQGTSVTVSS
VL: DIQMNQSPSSLSASLGDTITITCHASQNINVWLNWYQQKPGNIPKLLIYKASNLHTGVPSRFSGSGSGTGFTLTISSLQPEDIATYYCQQGQSYPLTFGGGTKLEIK
In the case of B1, the “inhibition by average bioluminescence intensity” value in data set [1] (day 16) is “More than 95%”. Also, the “inhibition rate by average tumor weight” value in data set [1] (day 28) was found to be 58.0%. The molecule also had an IC50 cell death in data set [2] of 5 to 7 µg/mL. The cell death entry in data set [2] (72 h) is “More than 50%”. Moreover, in the data set on three CRC cell lines, the “reduction in cell viability” value was “More than 80%”. Further, in data set [3], the “inhibition of PDAC xenograft tumor growth” value was “highly effective in inhibiting PDAC cell-mediated tumor growth; also recorded: highly effective in inhibition of xenograft PDAC growth”. Moreover, in data set [4], the “binding intensity compared with free Zt/g4” value is “No difference in binding intensity”.

These data come from US20160311918A1, “Anti-Ron Monoclonal Antibodies as a Cytotoxic Drug Delivery System for Targeted Cancer Therapy” (TEXAS TECH UNIVERSITY SYSTEM, priority 2013, published 2016).
